Measurements reported in publication PMC6941992, “Polar recruitment of RLD by LAZY1-like protein during gravity signaling in root branch angle control” (Nature Communications, 2020).

Biological target: T1, RLD2 BRX domain (residues 1006-1066) (Arabidopsis thaliana, UniProt F4K0X5 1006-1066)
T1 construct: HRV3C cleavage may leave vector residues at the N-terminus (surmised); source: E. coli BL21Star (DE3), purified (His-tag resin, HRV3C cleavage, gel filtration); for crystals co-expressed with LZY3 (274-287); not shown: His6, N-terminal, cleaved
T1 sequence (looked up): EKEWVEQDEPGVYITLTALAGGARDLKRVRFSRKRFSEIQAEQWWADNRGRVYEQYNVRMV
Experiment: ITC; iTC200, 20 °C; 20 mM Tris-HCl pH 8.0, 150 mM NaCl; 200 μM LZY3 (274-287) injected into 20 μM RLD2 BRX domain; 1:1 binding model
Details: both partners purified

B1: LZY3 CCL peptide (residues 274-287) (peptide, UniProt Q5XVG3 274-287, looked up)
chain: KWVKTDSDFIVLEI
notes: LZY3 (LAZY1-LIKE 3), Arabidopsis thaliana, residues 274-287 (CCL domain); HRV3C cleavage may leave vector residues at the N-terminus (surmised); also called CCL β-hairpin; source: E. coli BL21Star (DE3), purified (glutathione sepharose, HRV3C cleavage, gel filtration, reverse phase); for crystals co-expressed with RLD2; not shown: GST, N-terminal, cleaved
Kd: 9.7 ± 2.2 nM | dH: -11.3 ± 0.09 kcal/mol | stoichiometry N: 0.73 ± 0.002
